This passage reports EC50 results from patent publication US20250206837A1.

In this assay the target is Recombinant His-tagged mouse CD36.ECD protein (Sino Biological) (mouse) (UniProt Q08857). In words: ELISA, coated mouse CD36.ECD (FIG. 1D). (ELISA stands for enzyme-linked immunosorbent assay.)
Sequence of Recombinant His-tagged mouse CD36.ECD protein (Sino Biological) (mouse) (Q08857 30-439 limits assumed): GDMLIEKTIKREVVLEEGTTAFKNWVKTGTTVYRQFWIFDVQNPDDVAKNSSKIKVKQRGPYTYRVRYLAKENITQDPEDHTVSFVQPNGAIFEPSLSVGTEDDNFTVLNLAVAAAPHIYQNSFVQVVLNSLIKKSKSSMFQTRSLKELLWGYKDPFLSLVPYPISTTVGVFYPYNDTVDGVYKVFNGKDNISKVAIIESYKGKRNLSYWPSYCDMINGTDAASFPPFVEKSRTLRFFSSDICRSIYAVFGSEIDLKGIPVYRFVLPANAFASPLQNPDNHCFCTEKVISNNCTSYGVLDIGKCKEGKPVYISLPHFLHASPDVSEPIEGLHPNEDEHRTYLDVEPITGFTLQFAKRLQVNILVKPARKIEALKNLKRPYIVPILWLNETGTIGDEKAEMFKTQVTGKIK

By EC50 is commonly meant the concentration that produces a half-maximal response. Regarding “D2712 (clone CRF D-2712, BD Biosciences, US) (antibody)”, the EC50 is 930 pM.
